# Measured values taken from the RNAGym collection of RNA variant scans (doi:10.1093/molbev/msab373).
# B1: Azoarcus group I ribozyme (parent)
# chain: GUGCCUUGCGCCGGGAAACCACGCAAGGGAUGGUGUCAAAUUCGGCGAAACCUAAGCGCCCGCCCGGGCGUAUGGCAACGCCGAGCCAAGCUUCGGCGCCUGCGCCGAUGAAGGUGUAGAGACUAGACGGCACCCACCUAAGGCAAACGCUAUGGUGAAGGCAUAGUCCAGGGAGUGGCGAAAGUCACACAAACCGG
# Variants of: B1
# Experiment: reverse-splicing fitness (ratio to wild type); higher = more active; in vitro selection; Mg2+ level not given
# Outline: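 An in vitro group I ribozyme library with randomized positions was T7-transcribed and gel-purified. In triplicate, 10 pmol RNA in EPPS pH 7.5 was reacted with 50 pmoles of a 30-nt RNA substrate for 1 h at 37 °C across several added MgCl2 levels (1–48 mM), then stopped with EDTA. Products were reverse transcribed from a substrate-complementary primer, PCR-amplified and sequenced (HiSeq 4000). Fitness is a variant's read proportion after selection over that before, normalised to wild type.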
row,Variant,reverse-splicing fitness
1,A111C A120U A145G C150A C169U U176G,0.00263
2,A111C A120U A145G C150A C169U U176A,0.00876
3,A111C A120U A145G C150A C169U U176C,0.00638
4,A111C A120U A145U C150U C169U U176C,0.0142
5,A111C A120U A145U C150U C169U U176G,0.00224
6,A111C A120U A145U C150U C169U U176A,0.00859
7,A111C A120U A145G C150A C169A,0.0061
8,A111C A120U A145G C150A C169U,0.0133
9,A111C A120U A145G C150A C169G,0.0103
10,A111C A120U A145U C150A C169G U176A,0.00295
11,A111C A120U A145U C150A C169G U176G,0.00199
12,A111C A120U A145U C150A C169G U176C,0.00388
13,A111C A120U A145U C150G C169U U176A,0.00284
14,A111C A120U A145U C150G C169U U176G,0.00279
15,A111C A120U A145U C150G C169U U176C,0.00398
16,A111C A120G C150A C169A U176G,0.00594
17,A111C A120G C150A C169A U176A,0.0174
18,A111C A120G C150A C169A U176C,0.023
19,A111C A120G A145U C150A U176C,0.0176
20,A111C A120G A145U C150A U176A,0.0126
21,A111C A120G A145U C150A U176G,0.0043

row,Variant,reverse-splicing fitness
1,A111C A120U C150A C169U U176G,0.00274
2,A111C A120U C150A C169U U176C,0.0062
3,A111C A120U C150A C169U U176A,0.00902
4,A111C A120G A145U C150U C169G U176A,0.0211
5,A111C A120G A145U C150U C169G U176G,0.00542
6,A111C A120G A145U C150U C169G U176C,0.0326
7,A111C A120G A145U C169A U176G,0.0051
8,A111C A120G A145U C169A U176A,0.0166
9,A111C A120G A145U C169A U176C,0.0182
10,A111C A120G A145U C169A,0.128
11,A111C A120G A145U C169U,0.174
12,A111C A120G A145U C169G,0.203
13,A111C A120G C169U U176A,0.0433
14,A111C A120G C169U U176C,0.0498
15,A111C A120G C169U U176G,0.00657
16,A111C A120U A145C U176C,0.17
17,A111C A120U A145C U176A,0.244
18,A111C A120U A145C U176G,0.0856
19,A111C A120U A145C C169A U176A,0.00217
20,A111C A120U A145C C169A U176C,0.00231
21,A111C A120U A145C C169A U176G,0.00212

row,Variant,reverse-splicing fitness
1,A111C A120U A145G C150U C169U U176A,0.0118
2,A111C A120U A145G C150U C169U U176C,0.0178
3,A111C A120U A145G C150U C169U U176G,0.00321
4,A111C A120U A145C C150A C169U U176G,0.00242
5,A111C A120U A145C C150A C169U U176C,0.00283
6,A111C A120U A145C C150A C169U U176A,0.00457
7,A111C A120G A145U C150A C169U U176A,0.0198
8,A111C A120G A145U C150A C169U U176G,0.0045
9,A111C A120G A145U C150A C169U U176C,0.0173
10,A111C A120U A145C C150G C169A,0.00389
11,A111C A120U A145C C150G C169G,0.00714
12,A111C A120U A145C C150G C169U,0.0105
13,A111C A120U C150A U176A,0.0268
14,A111C A120U C150A U176G,0.0153
15,A111C A120U C150A U176C,0.0376
16,A111C A120G U176C,0.0417
17,A111C A120G U176G,0.00629
18,A111C A120G U176A,0.0401
19,A111C A120G A145U C150G U176G,0.00305
20,A111C A120G A145U C150G U176C,0.0169
21,A111C A120G A145U C150G U176A,0.00983

row,Variant,reverse-splicing fitness
1,A111C A120G C150G C169G,0.0183
2,A111C A120G C150G C169U,0.0177
3,A111C A120G C150G C169A,0.0136
4,A111C A120U A145C C169U U176C,0.0145
5,A111C A120U A145C C169U U176G,0.00215
6,A111C A120U A145C C169U U176A,0.0108
7,A111C A120U A145U C150U C169A U176C,0.00252
8,A111C A120U A145U C150U C169A U176G,0.00217
9,A111C A120U A145U C150U C169A U176A,0.00293
10,A111C A120U A145U C150A C169A U176A,0.00258
11,A111C A120U A145U C150A C169A U176C,0.00244
12,A111C A120U A145U C150A C169A U176G,0.00209
13,A111C A120U A145U C150U,0.491
14,A111C A120U A145U C150A,0.0636
15,A111C A120U A145U C150G,0.0737
16,A111C A120U A145G C150U C169A U176G,0.00278
17,A111C A120U A145G C150U C169A U176C,0.00404
18,A111C A120U A145G C150U C169A U176A,0.00648
19,A111C A120U A145C C150U C169G,0.0128
20,A111C A120U A145C C150U C169A,0.00231
21,A111C A120U A145C C150U C169U,0.0171
